Reference: paper PMC3739785, “A Primate Specific Extra Domain in the Molecular Chaperone Hsp90” (PLoS ONE, 2013)

How the values were obtained:
[1] = biological target: T1, human Hsp90α (human, UniProt P07900-1 1-732); assay: SEC; chaperone and cochaperone at 2.5 µM, 10 min at 30°C following 10 min on ice, 40 mM Hepes-KOH pH 7.4, 50 mM KCl, 2 mM Mg2Cl; Superdex 200 HR 10/30 in the same buffer; fractions analysed by SDS-PAGE (Western blot for Aha1 and Cdc37 in the Hsp103 runs); shift of the cochaperone to higher molecular mass; details: both partners purified
T1 construct: human Hsp90α (Hsp90AA1-1), canonical isoform, 732 aa as printed; also called Hsp90AA1-1; heat shock protein 90

[2] = biological target: T2, human Hsp103 (human, UniProt P07900-2 1-854); assay: as above; details: both partners purified
T2 construct: human Hsp103, the isoform of Hsp90α with an additional 122 aa (E domain) at the N-terminus; printed length 854 aa (also printed as 852 aa for Hsp90AA1-2); also called Hsp90AA1-2; Hsp90α with extra E domain

B1: human Cdc37 (natural protein, UniProt Q16543 1-378, looked up)
chain: MVDYSVWDHIEVSDDEDETHPNIDTASLFRWRHQARVERMEQFQKEKEELDRGCRECKRKVAECQRKLKELEVAEGGKAELERLQAEAQQLRKEERSWEQKLEEMRKKEKSMPWNVDTLSKDGFSKSMVNTKPEKTEEDSEEVREQKHKTFVEKYEKQIKHFGMLRRWDDSQKYLSDNVHLVCEETANYLVIWCIDLEVEEKCALMEQVAHQTIVMQFILELAKSLKVDPRACFRQFFTKIKTADRQYMEGFNDELEAFKERVRGRAKLRIEKAMKEYEEEERKKRLGPGGLDPVEVYESLPEELQKCFDVKDVQMLQDAISKMDPTDAKYHMQRCIDSGLWVPNSKASEAKEGEEAGPGDPLLEAVPKTGDEKDVSV
notes: human Cdc37, cochaperone of Hsp90
binding result [1]: binds | binding result [2]: binds
